From article PMC7376121, “In-Lipid Structure of Pressure-Sensitive Domains Hints Mechanosensitive Channel Functional Diversity” (Biophysical Journal, 2020)
Positions count from the first letter of the chain named. In names and notes the source's numbering stands.

B1: Escherichia coli MscL F93C, MTSSL spin-labelled (EcMscL F93R1) (natural protein, UniProt P0A742 1-136, looked up)
chain: MSIIKEFREFAMRGNVVDLAVGVIIGAAFGKIVSSLVADIIMPPLGLLIGGIDFKQFAVTLRDAQGDIPAVVMHYGVFIQNVFDFLIVAFAICMAIKLINKLNRKKEEPAAAPAPTKEEVLLTEIRDLLKEQNNRS
modifications: MTSSL spin label on the cysteine at 93 (R1)
notes: Mechanosensitive channel of large conductance (MscL), Escherichia coli; cysteine mutant on vector pET-52b; R1 denotes the spin-labelled cysteine; also called EcF93R1; source: E. coli BL21 (DE3), purified (Ni-NTA, SEC) in DDM, MTSSL spin-labelled; also reconstituted in MSP1D1 DMPC nanodisks
B2: Escherichia coli MscL M94C, MTSSL spin-labelled (EcMscL M94R1) (natural protein, UniProt P0A742 1-136, looked up)
chain: B1 chain with C93F, M94C
modifications: MTSSL spin label on the cysteine at 94 (R1)
notes: Mechanosensitive channel of large conductance (MscL), Escherichia coli; cysteine mutant on vector pET-52b; R1 denotes the spin-labelled cysteine; possibly a pentamer in DDM; also called EcM94R1; EcM94C; source: E. coli BL21 (DE3), purified (Ni-NTA, SEC) in DDM, MTSSL spin-labelled; also reconstituted in MSP1D1 DMPC nanodisks

Biological target: the molecule itself
Assay: PELDOR/DEER; spin-labelled single-cysteine channel in DDM detergent solution (50 mM sodium phosphate pH 7.5, 300 mM NaCl, 0.05% DDM), diluted 1:1 with deuterated ethylene glycol, flash frozen; Q band, 50 K; distances between the labels of the subunits of one channel

| Protein | stoichiometry N | binding result |
| --- | --- | --- |
| B1 | 5 | – |
| B2 | – | binds |
